Experimental findings from patent publication US20150004189A1 are described below.

In assay [1] the target is HLA-DP DPB1*0201 (human). As to the kind of experiment: inhibition of radiolabeled peptide binding to purified HLA-DP.
Assay [2] deals with HLA-DP DPB1*2001 (human). The assay is described as above.
Assay [3] concerns the target HLA-DQ molecule DQB1*0503 (human). As to the kind of experiment: competition: inhibition of radiolabeled peptide binding to purified HLA.
For assay [4], the target named is HLA-DQ molecule DQB1*0502 (human). The assay is described as above.
For assay [5], the target named is HLA-DQ molecule DQB1*0602 (human). Described as above.
The target of assay [6] is HLA-DQ molecule DQB1*0202 (human). The description is as above.
In assay [7] the target is HLA DP molecule DPB1*2001 (human). As to the kind of experiment: competition vs radiolabeled peptide, purified HLA-DP.
The target of assay [8] is HLA DP molecule DPB1*0501 (human). Described as above.

By IC50 is commonly meant the concentration at which inhibition is half-maximal. In the case of Aln g 1 (16-30) peptide 3324.0003, the IC50 was found to be 36 nM in assay [1] and 2570 nM in assay [2].

As to “Alt a 1 peptide, position 141, Peptide ID 3324.0011”, the IC50 amounted to 9.1 µM in assay [3], 6.01 µM in assay [4], 4950 nM in assay [5] and 31.7 µM in assay [6].

“Alt a 1 peptide, position 143, Peptide ID 3324.0016”: the IC50 in assay [4] was 7.75 µM; in assay [5] it was 70 nM; in assay [6], 7.02 µM.

For the substance “Alt a 7 peptide, position 6, … (Peptide ID 3324.0085)”, the figures for the IC50 in assay [7] and in assay [8] were 1290 nM and 47 nM, respectively.

Turning to Der p 4 (86-100) peptide 3324.0981, the IC50 turned out to be 220 nM in assay [1] and 17 nM in assay [2].
